# Measured values from patent US20140113872A1 (INSTITUT NATIONAL DE LA RECHERCHE SCIENTIFIQUE, published 2014).
# Numbered stars: 1 amine (or outer) side, 2 acyl side, 3 side chain; on linkers, the order of the positions; unused ones are H or OH. Bridge positions count the residues as written; N and C are the ends. Square brackets hold non-standard residues; d marks the D form. Ends that are not written are not given here. dTiq = D-1,2,3,4-tetrahydroisoquinoline-1-carboxylic acid, O=C([C@H]1c2ccccc2CCN1[*:1])[*:2]; Bip = N[C@@H](Cc1ccc(-c2ccccc2)cc1)C(=O)O; Dip = N[C@H](C(=O)O)C(c1ccccc1)c1ccccc1; Phe(4-I) = N[C@@H](Cc1ccc(I)cc1)C(=O)O; 1Nal = N[C@@H](Cc1cccc2ccccc12)C(=O)O; d1Nal = N[C@H](Cc1cccc2ccccc12)C(=O)O; Tiq1c(1S) = O=C(O)[C@H]1NCCc2ccccc21; Tic = O=C(O)[C@@H]1Cc2ccccc2CN1; dTic = O=C(O)[C@H]1Cc2ccccc2CN1; Cha = N[C@@H](CC1CCCCC1)C(=O)O; dPhg = N[C@@H](C(=O)O)c1ccccc1; dTle = CC(C)(C)[C@@H](N)C(=O)O; Phg = N[C@H](C(=O)O)c1ccccc1; dAia = not defined here
# T1: human urotensin II receptor (UT) (human, UniProt Q9UKP6 1-389)
# T1 construct: whole, on cells; also called hUT; hGPR14
# T1 sequence (looked up): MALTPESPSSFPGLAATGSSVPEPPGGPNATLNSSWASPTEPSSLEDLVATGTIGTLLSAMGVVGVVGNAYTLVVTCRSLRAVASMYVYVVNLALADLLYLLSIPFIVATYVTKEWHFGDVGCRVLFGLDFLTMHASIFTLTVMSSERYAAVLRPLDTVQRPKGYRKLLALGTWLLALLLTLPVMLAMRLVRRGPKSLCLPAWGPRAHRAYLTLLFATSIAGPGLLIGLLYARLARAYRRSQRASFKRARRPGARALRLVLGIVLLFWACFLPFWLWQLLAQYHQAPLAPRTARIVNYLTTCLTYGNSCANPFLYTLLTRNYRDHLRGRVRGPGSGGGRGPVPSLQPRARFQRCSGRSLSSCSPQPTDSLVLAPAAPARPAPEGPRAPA
# T2: UT receptor present in rat aortic ring (rat, UniProt P49684 1-386)
# T2 sequence (looked up): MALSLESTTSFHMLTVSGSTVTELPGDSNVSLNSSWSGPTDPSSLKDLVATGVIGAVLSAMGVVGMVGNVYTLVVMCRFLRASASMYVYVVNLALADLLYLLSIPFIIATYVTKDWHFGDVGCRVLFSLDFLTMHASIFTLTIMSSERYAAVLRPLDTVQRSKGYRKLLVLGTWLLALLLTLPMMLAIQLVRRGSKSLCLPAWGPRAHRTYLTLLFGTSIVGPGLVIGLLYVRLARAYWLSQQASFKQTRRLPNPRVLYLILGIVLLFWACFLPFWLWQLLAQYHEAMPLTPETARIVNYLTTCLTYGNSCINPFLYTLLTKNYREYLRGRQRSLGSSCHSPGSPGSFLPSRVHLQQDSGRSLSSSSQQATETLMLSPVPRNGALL
# B1: ^125I-URP (peptide)
# peptide: H-ACFWKYCV-OH
# modifications: disulfide 2-7; also: 125I-labelled, site not given here
# notes: used at 0.2 nM; also called radiolabeled URP
# B2: urotensin II-related peptide (URP) (peptide)
# peptide: H-ACFWKYCV-OH
# modifications: disulfide 2-7
# SMILES: CC(C)[C@H](NC(=O)[C@@H]1CSSC[C@H](NC(=O)[C@H](C)N)C(=O)N[C@@H](Cc2ccccc2)C(=O)N[C@@H](Cc2c[nH]c3ccccc23)C(=O)N[C@@H](CCCCN)C(=O)N[C@@H](Cc2ccc(O)cc2)C(=O)N1)C(=O)O
# B3: [D-Aia^4]URP (peptide)
# peptide: ACF[dAia]KYCV
# modifications: disulfide 2-7; not fully specified (bridges); reading uncertain; also: D-Aia indole ring bonded to Lys5 backbone N
# notes: also called compound 13
# B4: [1-Nal^4]URP (peptide)
# peptide: H-ACF[1Nal]KYCV-OH
# modifications: disulfide 2-7
# notes: H-Ala-Cys-Phe-Nal-Lys-Tyr-Cys-Val-OH; also called compound 3
# B5: [Tiq^4]URP (peptide)
# peptide: H-ACF[Tiq1c(1S)]KYCV-OH
# modifications: disulfide 2-7
# notes: H-Ala-Cys-Phe-Tiq-Lys-Tyr-Cys-Val-OH; also called compound 16
# B6: [Phe(I)^4]URP (peptide)
# peptide: H-ACF[Phe(4-I)]KYCV-OH
# modifications: disulfide 2-7
# notes: H-Ala-Cys-Phe-Phe(I)-Lys-Tyr-Cys-Val-OH; also called compound 5; [para-iodo-Phe^4]URP
# B7: [Phg^4]URP (peptide)
# peptide: H-ACF[Phg]KYCV-OH
# modifications: disulfide 2-7
# notes: H-Ala-Cys-Phe-Phg-Lys-Tyr-Cys-Val-OH; also called compound 14
# B8: [Pen^2, Tiq^4]URP (peptide)
# peptide: AXFXKYCV
# modifications: position 2 is beta,beta-dimethyl-cysteine (Pen); position 4 is Tiq; cyclic (Pen2-Cys7 disulfide)
# notes: H-Ala-Pen-Phe-Tiq-Lys-Tyr-Cys-Val-OH; also called compound 20
# Molecular target: T1, human urotensin II receptor (UT)
# Assay: dissociation from living CHO-UT cells started with 10^-6 M URP + 10^-6 M urocontrin ([Bip^4]URP)
# Method: (§1) Binding assays were following known literature procedures using CHO cells stably transfected with hGPR14. […] After 90 min of incubation at room temperature, cells were washed, lysed, and the cell-bound radioactivity was quantified using a γ-counter. […] The cells were then washed, lysed, and the radioactivity counted on a γ-counter (1470 Automatic Gamma Counter, Perkin Elmer).
row,Molecule,half-life (t1/2) [min]
1,B1,12.1

# Molecular target: T2, UT receptor present in rat aortic ring
# Assay: cell-based or functional assay
Molecule,"URP pEC50, rat aortic ring pre-treated with 10^-6 M [Bip^4]URP","pIC50, reversal of contractile tone established in rat isolated aorta with 4 nM hUII"
B2,7.74,–
H-ACF[Bip]KYCV-OH (disulfide 2-7) [[Bip^4]URP],–,7.72

# Molecular target: T2, UT receptor present in rat aortic ring
# Assay: cell-based or functional assay
# Remark: another data set of the same source
Molecule,"hUII pEC50, rat isolated aorta pre-treated with 0.3 µM [Bip^4]URP","hUII pEC50, rat isolated aorta pre-treated with 1 µM [Bip^4]URP","hUII pEC50, rat isolated aorta pre-treated with 3 µM [Bip^4]URP","hUII pEC50, rat isolated aorta, vehicle"
H-ETPDCFWKYCV-OH (disulfide 5-10) [human urotensin II (hUII)],8.31,7.6,7.55,8.98

# Molecular target: T1, human urotensin II receptor (UT)
# Assay: displacement of 0.2 nM 125I-hUII from CHO cells expressing human UT
row,Molecule,pEC50
1,[Tbg^4]URP (peptide),< 5
2,ACF[Tic]KYCV-OH (disulfide 2-7) [[Tic^4]URP],< 5

# Molecular target: T2, UT receptor present in rat aortic ring
# Assay: cell-based or functional assay
# Remark: another data set of the same source
Molecule,"Aortic Ring contraction Emax (%), maximum efficacy at 10^-5.5 M",Aortic Ring contraction Emax (%),Aortic Ring contraction EC50 [nM],Aortic Ring contraction pEC50
H-ACF[Cha]KYCV-OH (disulfide 2-7) [[Cha^4]URP],77 % of KCl (40 mM) contraction,–,–,–
B3,–,148 % of KCl (40 mM) contraction,–,–
B2,–,100 % of KCl (40 mM) contraction,7,8.09
"ACF[d1Nal]KYCV (disulfide 2-7, also called compound 4; [D-Nal^4]URP) [[D-1-Nal^4]URP]",34 % of KCl (40 mM) contraction,–,–,–
B4,–,86 % of KCl (40 mM) contraction,–,–
H-ETPDCFWKYCV-OH (disulfide 5-10) [human urotensin II (hUII)],–,117 % of KCl (40 mM) contraction,1,9.08
B5,–,126 % of KCl (40 mM) contraction,–,–
"ACF[dTiq]KYCV (disulfide 2-7, also called compound 17) [[D-Tiq^4]URP]",–,113 % of KCl (40 mM) contraction,–,–
"H-ACF[dPhg]KYCV-OH (disulfide 2-7, also called compound 15) [[D-Phg^4]URP]",–,116 % of KCl (40 mM) contraction,–,–
B6,92 % of KCl (40 mM) contraction,–,–,–
ACF[Tic]KYCV-OH (disulfide 2-7) [[Tic^4]URP],43 % of KCl (40 mM) contraction,–,–,–
B7,–,102 % of KCl (40 mM) contraction,–,–
ACF[dTic]KYCV (disulfide 2-7) [[D-Tic^4]URP],–,128 % of KCl (40 mM) contraction,–,–
"ACF[dTle]KYCV-OH (disulfide 2-7, also called compound 8) [[D-Tbg^4]URP]",–,99 % of KCl (40 mM) contraction,–,–
H-ACF[Dip]KYCV-OH (disulfide 2-7) [[Dip^4]URP],23 % of KCl (40 mM) contraction,–,–,–

# Molecular target: T1, human urotensin II receptor (UT)
# Assay: dissociation from living CHO-UT cells started with 10^-6 M URP alone
# Method: as §1
row,Molecule,half-life (t1/2) [min]
1,B1,13.1

# Molecular target: T1, human urotensin II receptor (UT)
# Assay: displacement of 0.2 nM 125I-hUII from CHO cells expressing human UT
# Remark: another data set of the same source
row,Molecule,pEC50
1,B3,7.22
2,"ACF[d1Nal]KYCV (disulfide 2-7, also called compound 4; [D-Nal^4]URP) [[D-1-Nal^4]URP]",7.33
3,B4,7.77
4,B8,< 5
5,"ACF[dTiq]KYCV (disulfide 2-7, also called compound 17) [[D-Tiq^4]URP]",7.68
6,"H-ACF[dPhg]KYCV-OH (disulfide 2-7, also called compound 15) [[D-Phg^4]URP]",7.56
7,B6,7.24
8,B7,7.53

# Molecular target: T1, human urotensin II receptor (UT)
# Assay: as above
# Remark: another data set of the same source
# Method: as §1, with “Cell Culture and Binding Experiments: Transfected CHO cells expressing the human urotensin receptor (CHO-UT) were maintained in Ham-F12 medium with 10% fetal bovine serum (FBS), 2 mM L-glutamine, 100 Ul/mL each of penicillin and streptomycin, and 400 μg/mL G418. […] Binding” for “Binding”
row,Molecule,IC50 [nM]
1,B3,60
2,"ACF[d1Nal]KYCV (disulfide 2-7, also called compound 4; [D-Nal^4]URP) [[D-1-Nal^4]URP]",46
3,B4,17
4,B5,10
5,"ACF[dTiq]KYCV (disulfide 2-7, also called compound 17) [[D-Tiq^4]URP]",21
6,"H-ACF[dPhg]KYCV-OH (disulfide 2-7, also called compound 15) [[D-Phg^4]URP]",29
7,B6,58
8,B7,29
9,"ACF[dTle]KYCV-OH (disulfide 2-7, also called compound 8) [[D-Tbg^4]URP]",> 1000
